Assay results taken from the supplement of paper PMC9112550, “Optimization of the antimicrobial peptide Bac7 by deep mutational scanning” (BMC Biology, 2022).

Tested on: Escherichia coli TOP10
Assay: shrunken log2 fold change of peptide-encoding DNA abundance (4.5 h post-induction vs induction); higher = less antimicrobial activity (less host growth inhibition)
Settings: time post-induction: 4.5 h; library: site-saturation at positions 5, 18, 19, 20
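Further: peptides expressed intracellularly from a pBAD plasmid library in pooled LB shake-flask culture, induced with 0.3% L-arabinose, DNA abundance read by NGS, three biological replicates, DESeq2 with apeglm shrinkage.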

Sequence	shrunken log2 fold change
RRIRERPPRLPRPRPRPQPWPRP	-0.0127
RRIRERPPRLPRPRPRPQRVPRP	-0.167
RRIRERPPRLPRPRPRPQRYPRP	-0.222
RRIRERPPRLPRPRPRPQSCPRP	0.00299
RRIRERPPRLPRPRPRPQSMPRP	-0.0801
RRIRERPPRLPRPRPRPQSVPRP	-0.0488
RRIRERPPRLPRPRPRPRAFPRP	0.189
RRIRERPPRLPRPRPRPRCEPRP	0.0736
RRIRERPPRLPRPRPRPRCVPRP	0.0448
RRIRERPPRLPRPRPRPRFHPRP	-0.447
RRIRERPPRLPRPRPRPRGLPRP	0.159
RRIRERPPRLPRPRPRPRGNPRP	-0.598
RRIRERPPRLPRPRPRPRGTPRP	0.0483
RRIRERPPRLPRPRPRPRGVPRP	0.309
RRIRERPPRLPRPRPRPRHFPRP	-0.419
RRIRERPPRLPRPRPRPRHMPRP	-0.0855
RRIRERPPRLPRPRPRPRHQPRP	-0.164
RRIRERPPRLPRPRPRPRIAPRP	-0.246
RRIRERPPRLPRPRPRPRIYPRP	-0.194
RRIRERPPRLPRPRPRPRKGPRP	0.0234
RRIRERPPRLPRPRPRPRLCPRP	-0.426
RRIRERPPRLPRPRPRPRLNPRP	-0.156
RRIRERPPRLPRPRPRPRMCPRP	-0.0502
RRIRERPPRLPRPRPRPRMHPRP	0.0795
RRIRERPPRLPRPRPRPRMMPRP	-0.011

Sequence	shrunken log2 fold change
RRIRERPPRLPRPRPRPRMQPRP	-0.0907
RRIRERPPRLPRPRPRPRNKPRP	-0.121
RRIRERPPRLPRPRPRPRPKPRP	0.194
RRIRERPPRLPRPRPRPRQCPRP	0.123
RRIRERPPRLPRPRPRPRRTPRP	0.176
RRIRERPPRLPRPRPRPRRVPRP	0.447
RRIRERPPRLPRPRPRPRRWPRP	0.267
RRIRERPPRLPRPRPRPRSSPRP	0.116
RRIRERPPRLPRPRPRPRSWPRP	0.0987
RRIRERPPRLPRPRPRPRVCPRP	0.0408
RRIRERPPRLPRPRPRPRWRPRP	0.706
RRIRERPPRLPRPRPRPRYRPRP	-0.198
RRIRERPPRLPRPRPRPSAQPRP	-0.167
RRIRERPPRLPRPRPRPSDSPRP	-0.186
RRIRERPPRLPRPRPRPSENPRP	-0.293
RRIRERPPRLPRPRPRPSFAPRP	-0.192
RRIRERPPRLPRPRPRPSFFPRP	0.221
RRIRERPPRLPRPRPRPSFPPRP	-0.704
RRIRERPPRLPRPRPRPSHNPRP	-0.903
RRIRERPPRLPRPRPRPSHPPRP	-0.481
RRIRERPPRLPRPRPRPSLQPRP	0.175
RRIRERPPRLPRPRPRPSLYPRP	-0.558
RRIRERPPRLPRPRPRPSNGPRP	-0.0949
RRIRERPPRLPRPRPRPSNKPRP	-0.811
RRIRERPPRLPRPRPRPSNQPRP	-0.841

Sequence	shrunken log2 fold change
RRIRERPPRLPRPRPRPSNTPRP	-0.942
RRIRERPPRLPRPRPRPSPWPRP	-0.445
RRIRERPPRLPRPRPRPSQTPRP	-0.067
RRIRERPPRLPRPRPRPSRRPRP	-0.432
RRIRERPPRLPRPRPRPSSHPRP	-0.0471
RRIRERPPRLPRPRPRPSTGPRP	-0.467
RRIRERPPRLPRPRPRPSTVPRP	-0.0579
RRIRERPPRLPRPRPRPSVEPRP	-0.326
RRIRERPPRLPRPRPRPSVIPRP	-0.259
RRIRERPPRLPRPRPRPSYRPRP	3.5
RRIRERPPRLPRPRPRPTAWPRP	0.378
RRIRERPPRLPRPRPRPTCLPRP	-0.233
RRIRERPPRLPRPRPRPTCWPRP	0.0288
RRIRERPPRLPRPRPRPTCYPRP	-0.673
RRIRERPPRLPRPRPRPTDSPRP	0.0161
RRIRERPPRLPRPRPRPTEHPRP	-0.144
RRIRERPPRLPRPRPRPTFCPRP	-0.0701
RRIRERPPRLPRPRPRPTGIPRP	0.0836
RRIRERPPRLPRPRPRPTGNPRP	-0.267
RRIRERPPRLPRPRPRPTHAPRP	0.332
RRIRERPPRLPRPRPRPTHQPRP	-0.135
RRIRERPPRLPRPRPRPTIDPRP	-0.227
RRIRERPPRLPRPRPRPTIPPRP	-0.475
RRIRERPPRLPRPRPRPTKHPRP	-0.347
RRIRERPPRLPRPRPRPTKMPRP	-0.22

Sequence	shrunken log2 fold change
RRIRERPPRLPRPRPRPTLAPRP	0.269
RRIRERPPRLPRPRPRPTLLPRP	-0.137
RRIRERPPRLPRPRPRPTLVPRP	-0.0681
RRIRERPPRLPRPRPRPTPDPRP	0.116
RRIRERPPRLPRPRPRPTPKPRP	0.525
RRIRERPPRLPRPRPRPTPMPRP	0.0913
RRIRERPPRLPRPRPRPTPTPRP	0.174
RRIRERPPRLPRPRPRPTQAPRP	-0.0212
RRIRERPPRLPRPRPRPTQCPRP	-0.133
RRIRERPPRLPRPRPRPTSVPRP	-0.028
RRIRERPPRLPRPRPRPTSYPRP	-0.288
RRIRERPPRLPRPRPRPTTGPRP	-0.0235
RRIRERPPRLPRPRPRPTWPPRP	0.219
RRIRERPPRLPRPRPRPTYEPRP	-1.47
RRIRERPPRLPRPRPRPTYHPRP	-0.407
RRIRERPPRLPRPRPRPVAPPRP	0.246
RRIRERPPRLPRPRPRPVAYPRP	-0.178
RRIRERPPRLPRPRPRPVDAPRP	-0.137
RRIRERPPRLPRPRPRPVELPRP	-0.0276
RRIRERPPRLPRPRPRPVGDPRP	-0.0343
RRIRERPPRLPRPRPRPVGGPRP	0.21
RRIRERPPRLPRPRPRPVGIPRP	0.144
RRIRERPPRLPRPRPRPVHFPRP	0.0364
RRIRERPPRLPRPRPRPVHYPRP	0.198
RRIRERPPRLPRPRPRPVIKPRP	-0.201

Sequence	shrunken log2 fold change
RRIRERPPRLPRPRPRPVIMPRP	-0.458
RRIRERPPRLPRPRPRPVIQPRP	0.0166
RRIRERPPRLPRPRPRPVKCPRP	-0.069
RRIRERPPRLPRPRPRPVKQPRP	-0.0109
RRIRERPPRLPRPRPRPVKSPRP	-0.155
RRIRERPPRLPRPRPRPVMLPRP	0.055
RRIRERPPRLPRPRPRPVMRPRP	0.453
RRIRERPPRLPRPRPRPVPHPRP	-0.0329
RRIRERPPRLPRPRPRPVPKPRP	0.358
RRIRERPPRLPRPRPRPVQEPRP	0.0869
RRIRERPPRLPRPRPRPVQMPRP	-0.115
RRIRERPPRLPRPRPRPVSCPRP	0.182
RRIRERPPRLPRPRPRPVSVPRP	-0.022
RRIRERPPRLPRPRPRPVTFPRP	-0.019
RRIRERPPRLPRPRPRPVWEPRP	0.239
RRIRERPPRLPRPRPRPVWYPRP	-0.383
RRIRERPPRLPRPRPRPVYNPRP	-0.0493
RRIRERPPRLPRPRPRPVYVPRP	-1.11
RRIRERPPRLPRPRPRPVYYPRP	0.0224
RRIRERPPRLPRPRPRPWATPRP	0.127
RRIRERPPRLPRPRPRPWAYPRP	-0.552
RRIRERPPRLPRPRPRPWCQPRP	-0.0135
RRIRERPPRLPRPRPRPWDAPRP	-0.379
RRIRERPPRLPRPRPRPWETPRP	0.11
RRIRERPPRLPRPRPRPWGCPRP	-0.364

Sequence	shrunken log2 fold change
RRIRERPPRLPRPRPRPWHAPRP	0.421
RRIRERPPRLPRPRPRPWKDPRP	-0.162
RRIRERPPRLPRPRPRPWRAPRP	0.0397
RRIRERPPRLPRPRPRPWREPRP	0.127
RRIRERPPRLPRPRPRPWRRPRP	0.115
RRIRERPPRLPRPRPRPWSIPRP	0.0521
RRIRERPPRLPRPRPRPWSVPRP	-0.113
RRIRERPPRLPRPRPRPWSWPRP	0.103
RRIRERPPRLPRPRPRPWTHPRP	-0.0081
RRIRERPPRLPRPRPRPWYFPRP	-0.171
RRIRERPPRLPRPRPRPWYVPRP	-0.612
RRIRERPPRLPRPRPRPYATPRP	-0.359
RRIRERPPRLPRPRPRPYCEPRP	-0.0402
RRIRERPPRLPRPRPRPYDGPRP	-0.0116
RRIRERPPRLPRPRPRPYEDPRP	-0.0116
RRIRERPPRLPRPRPRPYEMPRP	-1.05
RRIRERPPRLPRPRPRPYFLPRP	-0.437
RRIRERPPRLPRPRPRPYFSPRP	-0.247
RRIRERPPRLPRPRPRPYFVPRP	-0.892
RRIRERPPRLPRPRPRPYFYPRP	-0.757
RRIRERPPRLPRPRPRPYGFPRP	-0.382
RRIRERPPRLPRPRPRPYGLPRP	-0.0303
RRIRERPPRLPRPRPRPYGMPRP	-0.207
RRIRERPPRLPRPRPRPYGPPRP	-1.02
RRIRERPPRLPRPRPRPYHMPRP	-0.021
